Reference: patent US20250313612A1 (Adimab, published 2025)

How the values were obtained:
[1] = biological target: RSV F protein of recombinant mKate-RSV, subtype B (18537) (Respiratory syncytial virus subtype B …, UniProt P13843 26-574); assay: cell-based or functional assay
[2] = biological target: RSV F protein of recombinant mKate-RSV, subtype A (strain A2) (Respiratory syncytial virus subtype A …, UniProt P03420 26-574); assay: cell-based or functional assay
[3] = biological target: T1, RSV F ectodomain stabilized in the postfusion conformation (F ΔFP), subtype A (Respiratory syncytial virus subtype A, UniProt P03420 26-109; P03420 147-524); assay: BLI, IgG on AHQ sensor, 100 nM antigen
T1 construct: extracellular domain; trimer; furin-cleaved; also called Postfusion subtype A

[4] = biological target: T2, RSV F ectodomain stabilized in the postfusion conformation (F ΔFP), subtype B (Respiratory syncytial virus subtype B, UniProt P13843 26-109; P13843 147-524); assay: BLI, IgG on AHQ sensor, 100 nM antigen
T2 construct: extracellular domain; trimer; also called Postfusion subtype B; postF subtype B

B1: ADI-14438 (antibody, V domains shown)
VH: QVQLVQSGAEVKKPGASVKVSCRASGFVFTSYDINWVRQAPGQGLEWMGRMNAHTGQVTYAQKFQDKVSMTRDVSITTAYLELSRLASEDTAVYYCARPDINWGQDAFDVWGQGTMVTVSS
VL: DIRMTQSPSTLSASIGARVTITCRASQNIGNFLAWYQQKPGKAPKLLIYKASTLDPGVPSRFSGSGSGTEFTLTITSLQPDDFATFYCQQYKSDPTFGQGTKVEIK
notes: full-length IgG (yeast-expressed); also called Antibody Number 1; Ab# 1
Neut IC50 subtype B [1]: 0.237 µg/mL | Neut IC50 subtype A [2]: 0.289 µg/mL | Kd [3]: 11.8 nM | Kd [4]: 8.29 nM

B2: ADI-14503 (antibody, V domains shown)
VH: QVQLVQSGGGLVKPGGSLRLSCAASGFSLTNYRMNWVRQAPGKGLEWVSSLKDSSSYIYYADSVKGRFTVSRDDAKNSFFLQMTNVRAEDTAVYYCAREGSDTEYWRLTPPMDVWGNGTTVTVSS
VL: QSVLTQPPSVSVAPRQTARITCGEHNIGTKSVHWYQQKPGQAPVLVIYDDSDRPSGIPARFSGSNSGNTATLTISWVEAGDEAVYYCQVWDSGDHPWLFGGGTQLTVL
notes: full-length IgG (yeast-expressed); also called Antibody Number 64; Ab# 64
Neut IC50 subtype B [1]: 0.026 µg/mL | Neut IC50 subtype A [2]: 0.016 µg/mL | Kd [3]: 26.1 nM

B3: ADI-14478 (antibody, V domains shown)
VH: EVQLVESGGGLVKPGGSLRLSCAASGFTFSDYYMSWIRQAPGKGLEWVSYISISSSYTDYADSVKGRFTISRDNAKNSLYLQMNSLRAEDTAVYYCARDQRDQAVAGRWFDPWGQGTLVTVSS
VL: QSVVTQPPSVSGAPGQRVTISCTGSSSNIGAGFDVHWYQQVPGTAPKLLIYANTNRPSGVPDRFSGSKSGTSASLAITGLKAEDEADYYCQSYDNSLSGSAVFGGGTKVTVL
Neut IC50 subtype B [1]: 0.057 µg/mL | Neut IC50 subtype A [2]: 0.163 µg/mL

B4: ADI-14480 (antibody, V domains shown)
VH: QVQLVQSGAEVKKPGSSMSISCRASGGSFNNQAIHWIRQAPGEGLEWMGNIIPNFGSQNYAPEFVGRVSFNADASAGTAYMDLSDLTSQDTAVYYCATAGWFGELVRFDSWGQGTLVTVSS
VL: DIVMTQSPATLSVSPGGRATLSCRASETITTNLAWYQQKPGQAPRLLIYGASTRATGIPARFSGSGSGTEFTLTINSLQSEDFAVYYCQQYNNWPPLTFGGGTKLEIK
Neut IC50 subtype B [1]: 2.76 µg/mL | Neut IC50 subtype A [2]: > 10 µg/mL

B5: ADI-14482 (antibody, V domains shown)
VH: QVQLQQWGAGLVKPSETLSLTCAVSGGSFRGYQWNWFRQPPGKGLEWIGEINHGEYTHYNASLKSRVSLSIDTSKNQFSLNLTSVTAADTAMYFCARASSGTYNFEYWFDPWGQGTLVTVSS
VL: SYVLTQPPSVSVAPGKTAWLTCGGNNIGNKRVHWYQQKPGQAPVLVVYDDYGRPSGTSERVSGSNSGNTATLTISRVEAGDEAEYYCQVWDDPSDHAVFGGGTQLTVL
Neut IC50 subtype B [1]: 0.031 µg/mL | Neut IC50 subtype A [2]: 0.024 µg/mL

B6: ADI-14490 (antibody, V domains shown)
VH: QVQLVQSGGGVVQPGRSLRLSCAASGFTFSNYGMHWVRQAPGKGLEWVAVIWYDGSNKYYADSVKGRFTISRDNSKNTVYLQMNSLRADDTAVYYCARDAIFGSGPNWFDPWGQGTLVTVSS
VL: QSVLTQPPSVSGAPGQRVTISCTGSSSNIGAGYDVHWYQQLPGTAPKLLIYGSSNRPSGVPDRFSGSKSGTSASLAITGLQAEDEADYYCQSYESSLRGWVFGGGTKVTVL
Neut IC50 subtype B [1]: 0.113 µg/mL | Neut IC50 subtype A [2]: 1.02 µg/mL

B7: ADI-14488 (antibody, V domains shown)
VH: EVQLVESGGGLVQPGGSLKLSCTSSGLAFSGSAIHWVRQASGKGLEWVGRIRSKPNSYATEYAASVKGRFTISRDDSQNTAYLQMNSLKAEDTALYYCTLGYCSGDSCSSLRDYWGQGTLVTVSS
VL: QSALIQPASVSGSPGQSITISCTGTSSDVGGYNYVSWYQQHPGKAPKLMIYDVSNRPSGVSNRFSGSKSGNTASLTISGLQAEDEADYYCSSYTSSSTLVFGGGTKVTVL
Neut IC50 subtype B [1]: > 10 µg/mL | Neut IC50 subtype A [2]: > 10 µg/mL

B8: ADI-14487 (antibody, V domains shown)
VH: QVQLVQSGAEVKKPGASVRVSCKASGYTFSSYYIHWVRQAPGQGPEWLGWINPKSGDTIYSYKFQGRVTLTRETSITTAYMELTSLRSDDTAVYYCARVTWQWLVLGGFDYWGQGTLVTVSS
VL: DIVLTQSPLSLPVTPGEPASISCRSSLSLLHSNGDNYLDWYLQKPGQSPQLLIYLGSNRASGVPDRFSGSGSGTDFTLKISRVEAEDVGVYYCMQALHTPLTFGGGTKLEIK
Neut IC50 subtype B [1]: > 10 µg/mL | Neut IC50 subtype A [2]: > 10 µg/mL

B9: ADI-14486 (antibody, V domains shown)
VH: QVQLQESGPGLVKPSETLSLTCTVSGGSINNYFWSWIRQPPGKGLEWLGYIYNSGSTYYNPSLNSRVTISLQKSKNQFSLHLTSMTAADTAVYFCARHPSVIYGTFGANGGPNWFDPWGQGTLVTVSS
VL: QSVLTQPASVSGSPGQSITISCTGTSSDVGGYNYVSWYQQHPGKAPKLMIFDVTYRPSGISNRFSGSKSGNTASLTISGLHSEDEADYYCSSYTGSNTVIFGGGTKLTVL
notes: full-length IgG (yeast-expressed); also called Antibody Number 47; Ab# 47
Kd [3]: 0.529 nM | Kd [4]: 0.636 nM

B10: ADI-14479 (antibody, V domains shown)
VH: QVQLVQSGSEVKQPGASVKVSCKASGYTFSAYHLHWVRQAPGQGLQWLGRINPNSGATSVAHNFQGRVTLTTDTSISTAYMELSSLTSDDSAVYYCARTMWRWLVEGGFENWGQGTLVTVSS
VL: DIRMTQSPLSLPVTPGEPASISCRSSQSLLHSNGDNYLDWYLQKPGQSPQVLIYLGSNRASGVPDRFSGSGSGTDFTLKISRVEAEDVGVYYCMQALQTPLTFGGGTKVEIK
Neut IC50 subtype B [1]: 22.7 µg/mL | Neut IC50 subtype A [2]: 4.09 µg/mL

B11: ADI-14522 (antibody, V domains shown)
VH: EVQLVESGAEVKKPGDSVKVSCRASGYSFTGPFLHWVRQAPGQRLEHMGWINPRSGETKYAQSFLGRVTMTRDTSIRSATLELSSLRSDDTAVYYCARDLYSSGWLDNWGQGTLVTVSS
VL: ETTLTQSPATLSVSPGERATLSCRASQGLSSNLAWYQHKPGQAPRLLVYGVATRATGVPARFSGSGSGTEFTLTISSLQSDDFALYYCHQYNDWPYTFGQGTKLEIK
notes: full-length IgG (yeast-expressed); also called Antibody Number 82; Ab# 82
Neut IC50 subtype B [1]: 7.29 µg/mL | Neut IC50 subtype A [2]: 3.53 µg/mL | Kd [4]: 1.06 nM

B12: ADI-14491 (antibody, V domains shown)
VH: EVQLVESGGGVVQPGRSLRLSCAASGFTFSDHAMYWVRQAPGKGLEWVALISFDGRNIYYADSVKGRFTISRDNSKNTLYLQMNSLRAEDTAVYYCARDQWLVPDYWGQGTLVTVSS
VL: QSVLTQPASVSGSPGQSITISCTGTSSDVGGYNYVSWYQQHPGNAPKLMIYEVSKRPSGVPDRFSGFKSGNTASLTVSGLQAEDEADYYCSSYAGSNSVFGTGTKVTVL
notes: full-length IgG (yeast-expressed); also called Antibody Number 52; Ab# 52
Neut IC50 subtype B [1]: 0.102 µg/mL | Neut IC50 subtype A [2]: 0.105 µg/mL | Kd [3]: 0.238 nM | Kd [4]: 0.158 nM

B13: ADI-14473 (antibody, V domains shown)
VH: QVQLVQSGAEVKKPGEPLRISCKGSGYTFTSYWISWVRQMPGTGLEWMGRIDPSDSYTYSSPSFQGHVTISVDKSISTAYLQWSSLKASDTAIYYCARHKENYDFWDFWGQGTLVTVSS
VL: ETTLTQSPDSLAVSLGERATINCKSSQTIFFNSNNKISLAWYQQKPGQPPKLLISWASTRESGVPDRFSGSGSGTDFTLTISSLQPEDVAVYFCQQYYSSAFFGPGTRLEIK
notes: full-length IgG (yeast-expressed); also called Antibody Number 35; Ab# 35
Kd [3]: 0.224 nM | Kd [4]: 0.151 nM

B14: ADI-14483 (antibody, V domains shown)
VH: QVQLVQSGGRLVKPGGSLRLSCGMSGFGFSSYRMNWVRQAPGKGLEWISSISASSSYTDYANSVKGRFTISRDGANLFLQMNSLRVEDTAVYYCARDWGGHSIFGAVQDLWGQGTLVTVSS
VL: QSVLTQPPSVSGAPGQRVTISCSGSSSNIGAGYDVHWYQQLPGTAPKLLIYGNTNRPSGVPDRFSGSKSGTSASLAITGLQAEDEADYYCQSYDRSLSQVFGAGTKVTVL
notes: full-length IgG (yeast-expressed); also called Antibody Number 44; Ab# 44
Neut IC50 subtype B [1]: 0.03 µg/mL | Neut IC50 subtype A [2]: 0.031 µg/mL | Kd [4]: 20 nM
